Measured values: patent publication US20250011363A1, “OPTIMIZED SHORTENED PEPTIDE THAT BINDS TO ACETYLCHOLINE RECEPTOR, AND USE THEREOF” (SKINMED CO., LTD., priority 2021, published 2025)

biological target: acetylcholine receptor; test: SPR, AchR on chip, peptide 10 uM

Row | Binder | Binding affinity (RU)
1 | KVLCR [5mer-230] | 67
2 | RVYYK [5mer-233] | 84
3 | RGYTK [5mer-242] | 64
4 | KRRCK [5mer-236] | 81
5 | KRISR [5mer-2] | 80
6 | KLLSK [5mer-243] | 51
7 | KQVLK [5mer-238] | 58
8 | KSFTR [5mer-246] | 60
9 | KRFLK [5mer-228] | 53
10 | RGLRK [5mer-237] | 77
11 | KGYSK [5mer-235] | 70
12 | KGLLK [5mer-231] | 60
13 | RQYCR [5mer-234] | 62
14 | KGLTR [5mer-229] | 84
15 | RWQQK [5mer-6] | 61
16 | KRVLK [5mer-3] | 66
17 | KRFLR [5mer-4] | 58
18 | KLFLR [5mer-5] | 54
19 | KWYTR [5mer-232] | 71
20 | KSVSK [5mer-244] | 78
21 | RRQQR [5mer-227] | 84
22 | KWRYR [5mer-240] | 51
23 | KVRCR [5mer-241] | 51
24 | RQRSK [5mer-245] | 62
25 | KRLYR [5mer-239] | 61
26 | RQLTK [5mer-7] | 54

Now from value to binder:

Row | Binding affinity (RU) | Binder
27 | 63 | RWYLK [5mer-248]
28 | 65 | KRQSR [5mer-531]
29 | 70 | KSVQR [5mer-527]
30 | 72 | KQQQR [5mer-538]
31 | 80 | KVFLK [5mer-541]
32 | 85 | KRYTR [5mer-542]
33 | 80 | KGQYR [5mer-545]
34 | 59 | RLRLR [5mer-537]
35 | 70 | KSLLR [5mer-535]
36 | 60 | KWLCK [5mer-548]
37 | 65 | KVVLK [5mer-546]
38 | 74 | RQFYR [5mer-540]
39 | 50 | RRQLR [5mer-534]
40 | 54 | KQFSR [5mer-526]
41 | 70 | RRILK [5mer-302]
42 | 77 | KQVTK [5mer-547]

Row | Binding affinity (RU) | Binder
43 | 76 | RSVRK [5mer-304]
44 | 70 | RVVTR [5mer-539]
45 | 63 | RLQLR [5mer-544]
46 | 84 | RVQSR [5mer-529]
47 | 50 | RVLLR [5mer-528]
48 | 75 | KQICK [5mer-532]
49 | 87 | KGRYR [5mer-303]
50 | 80 | RWRRR [5mer-530]
51 | 78 | RLITK [5mer-536]
52 | 64 | KWIRK [5mer-301]
53 | 84 | RLVYK [5mer-533]
54 | 65 | RLRLK [5mer-543]
55 | 72 | KRICK [5mer-305]
56 | 74 | KSYYR [5mer-306]
57 | 80 | RWYCR [5mer-247]
